Test results from paper PMC11187126, “Structure and dynamics of the pyroglutamylated RF-amide peptide QRFP receptor GPR103” (Nature Communications, 2024).

Columns and labels:
[1] = system: GPR103; conditions: cited from earlier work
Text: GPR103 is a Gi/o- and Gq-coupled GPCR expressed in the adrenal gland and various regions of the brain such as the hypothalamus, which plays a crucial role in the regulation of energy metabolism and appetite control. […] In this study, we focused on the structural analysis complexed with Gq. To facilitate expression and purification, we truncated the C-terminal residues after G366 of human GPR103. […] (Supplementary Fig. 1a–d and Supplementary Table 1). […] The heptapeptide is conserved from fish to mammals, except for S23 (Supplementary Fig. 6a), consistent with the fact that the S23 side chain poorly interacts with the receptor. The receptor residues interacting with the heptapeptide are highly conserved among the homologs (Supplementary Fig. 6b, c). Accordingly, this observed heptapeptide-TMD interaction plays a key role in evolutionarily conserved GPR103 activation.

[2] = cited from earlier work
Text: GPR103 is a Gi/o- and Gq-coupled GPCR expressed in the adrenal gland and various regions of the brain such as the hypothalamus, which plays a crucial role in the regulation of energy metabolism and appetite control. QRFP and GPR103 are implicated in a variety of physiological functions ranging from the modulation of feeding behavior to the regulation of energy homeostasis, cardiovascular function, and bone formation. ... || In the current study, we have not only elucidated the architecture of the receptor but also shed light on the structure of QRFP itself, potentially paving the way for the modulation of QRFP-neurons (Q-neurons)[46]. […] The QRFP-induced hibernation-like state (QIH) provides an unusual model to study metabolic suppression for therapeutic purposes, as well as artificial hibernation. QIH through pharmacogenetics[47] or optogenetics[48] is achievable in murine models, ...

[3] = target: GPR103 Q318^7.39A (human) (UniProt Q96P65)
[4] = target: GPR103 E203^ECL2A (human) (UniProt Q96P65)
[5] = target: GPR103 T102^2.61 mutant (human) (UniProt Q96P65)
[6] = target: GPR103 E297^6.59A (human) (UniProt Q96P65)
[7] = target: GPR103 Q125^3.32 mutant (human) (UniProt Q96P65)
[8] = target: GPR103 alanine mutant of F25^N-term (human) (UniProt Q96P65)
[9] = target: GPR103 alanine mutant of Y29^N-term (human) (UniProt Q96P65)
[10] = target: GPR103 alanine mutant of F11^N-term (human) (UniProt Q96P65)
[11] = target: GPR103 C98^2.57A (human) (UniProt Q96P65)
Sequence of GPR103 C98^2.57A (human) (Q96P65 whole entry C98A): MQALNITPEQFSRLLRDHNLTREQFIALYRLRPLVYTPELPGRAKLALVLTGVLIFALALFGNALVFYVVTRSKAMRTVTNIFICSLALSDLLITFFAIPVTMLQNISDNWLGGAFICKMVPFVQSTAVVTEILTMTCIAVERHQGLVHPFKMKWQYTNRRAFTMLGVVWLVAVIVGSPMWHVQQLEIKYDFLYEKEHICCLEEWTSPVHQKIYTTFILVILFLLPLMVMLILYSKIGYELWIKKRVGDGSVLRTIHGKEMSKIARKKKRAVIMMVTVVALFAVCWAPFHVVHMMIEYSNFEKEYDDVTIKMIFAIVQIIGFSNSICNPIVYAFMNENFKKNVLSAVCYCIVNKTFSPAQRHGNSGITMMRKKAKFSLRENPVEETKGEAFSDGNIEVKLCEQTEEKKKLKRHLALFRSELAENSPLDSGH

Sequence of GPR103 E203^ECL2A (human) (Q96P65 whole entry E203A): as the sequence (Q96P65 whole entry C98A) above, with A98C, E203A counted along it
Sequence of GPR103 alanine mutant of F11^N-term (human) (Q96P65 other isoform, or with tags, fused parts or gaps mutant): as the sequence (Q96P65 whole entry C98A) above, with F11A, A98C counted along it
Sequence of GPR103 E297^6.59A (human) (Q96P65 whole entry E297A): as the sequence (Q96P65 whole entry C98A) above, with A98C, E297A counted along it
Sequence of GPR103 alanine mutant of Y29^N-term (human) (Q96P65 other isoform, or with tags, fused parts or gaps mutant): as the sequence (Q96P65 whole entry C98A) above, with Y29A, A98C counted along it
Sequence of GPR103 Q318^7.39A (human) (Q96P65 whole entry Q318A): as the sequence (Q96P65 whole entry C98A) above, with A98C, Q318A counted along it
Sequence of GPR103 alanine mutant of F25^N-term (human) (Q96P65 other isoform, or with tags, fused parts or gaps mutant): as the sequence (Q96P65 whole entry C98A) above, with F25A, A98C counted along it
Sequence of GPR103 Q125^3.32 mutant (human) (Q96P65 whole entry, change not shown): as the sequence (Q96P65 whole entry C98A) above, with A98C counted along it
Sequence of GPR103 T102^2.61 mutant (human) (Q96P65 whole entry, change not shown): as the sequence (Q96P65 whole entry C98A) above, with A98C counted along it

EDEGSEATGFLPAAGEKTSGPLGNLAEELNGYSRKKGGFSFRF [QRFP43, pyroglutamylated RF-amide peptide, 43-amino acid RF-amide peptide with a pyroglutamylated N-terminus]
activity for GPR103 (in words) ([1]; ref [5]–[7]): specific activity for GPR103
food intake and fat mass (in words) ([2]; QRFP administration, ref [11]): increased food intake and fat mass
glucose-induced insulin release (in words) ([2]; QRFP administration, ref [11]): reducing glucose-induced insulin release
osteopenia and nociception (in words) ([2]; QRFP administration, ref [11]): may also cause osteopenia and facilitate nociception
orexigenic activity (in words) ([2]; ref [5]–[7]): orexigenic activity
hypothermia and metabolism (in words) ([2]; ref [46]): capable of inducing an extended state of hypothermia and reduced metabolism

GGFSFRF [C-terminal heptapeptide, C-terminal heptapeptide of QRFP26 (GGFSFRF)]
GPR103 activation (in words) ([1]; ref [27],[28]): sufficient to activate GPR103
affinity (in words) ([1]; ref [27],[28]): reduced affinity

QRFP26 (from UniProt P83859 91-136) (peptide)
QRFP26-induced activation of GPR103, TGFα shedding assay (reduction of potency against wild type) [3]: > 3 fold
QRFP26-induced activation of GPR103, TGFα shedding assay (reduction of potency against wild type) [4]: 3 fold
QRFP26-induced activation of GPR103, TGFα shedding assay (reduction of potency against wild type) [5]: > 3 fold
QRFP26-induced activation of GPR103, TGFα shedding assay (reduction of potency against wild type) [6]: 10 fold
QRFP26-induced activation of GPR103, TGFα shedding assay (reduction of potency against wild type) [7]: > 3 fold
QRFP26-induced activation of GPR103, TGFα shedding assay (reduction of potency against wild type) [8]: 10 fold
QRFP26-induced activation of GPR103, TGFα shedding assay (reduction of potency against wild type) [9]: 10 fold
QRFP26-induced activation of GPR103, TGFα shedding assay (reduction of potency against wild type) [10]: 10 fold
QRFP26-induced activation of GPR103, TGFα shedding assay (reduction of potency against wild type) [11]: 3 fold
